Tests used:
[1] = molecular target: T1, Ku70/Ku80 wild type;DNA-PKcs (human?;human (HeLa cells), UniProt P12956;P13010;P78527 1-609;1-732;1-4128, |); test: ELISA; ELISA: 20 mM HEPES pH 7.5, 75 mM KCl, 10% glycerol, 0.005% Triton X-100, 2 mM DTT, room temperature, 1 h, 2 pmol DNA, 424 ng DNA-PKcs; EMSA: 20 ul, 500 fmol DNA, buffer as in earlier papers; conditions: protein: recombinant;native; tags: His (Ku70);; copies: 1;1;1; label: 5' biotin on one end; blunt
Ku70/Ku80 wild type [2] = molecular target: T2, Ku70/Ku80 wild type (UniProt P12956;P13010 1-609;1-732); test: EMSA; primarily 1:1 Ku:DNA; ELISA: 20 mM HEPES pH 7.5, 75 mM KCl, 10% glycerol, 0.005% Triton X-100, 2 mM DTT, room temperature, 1 h, 2 pmol DNA, 424 ng DNA-PKcs; EMSA: 20 ul, 500 fmol DNA, buffer as in earlier papers; conditions: protein: recombinant; tags: His (Ku70); copies: 1;1; blunt
T2 sequence (P12956 whole entry, chain 1 of 2): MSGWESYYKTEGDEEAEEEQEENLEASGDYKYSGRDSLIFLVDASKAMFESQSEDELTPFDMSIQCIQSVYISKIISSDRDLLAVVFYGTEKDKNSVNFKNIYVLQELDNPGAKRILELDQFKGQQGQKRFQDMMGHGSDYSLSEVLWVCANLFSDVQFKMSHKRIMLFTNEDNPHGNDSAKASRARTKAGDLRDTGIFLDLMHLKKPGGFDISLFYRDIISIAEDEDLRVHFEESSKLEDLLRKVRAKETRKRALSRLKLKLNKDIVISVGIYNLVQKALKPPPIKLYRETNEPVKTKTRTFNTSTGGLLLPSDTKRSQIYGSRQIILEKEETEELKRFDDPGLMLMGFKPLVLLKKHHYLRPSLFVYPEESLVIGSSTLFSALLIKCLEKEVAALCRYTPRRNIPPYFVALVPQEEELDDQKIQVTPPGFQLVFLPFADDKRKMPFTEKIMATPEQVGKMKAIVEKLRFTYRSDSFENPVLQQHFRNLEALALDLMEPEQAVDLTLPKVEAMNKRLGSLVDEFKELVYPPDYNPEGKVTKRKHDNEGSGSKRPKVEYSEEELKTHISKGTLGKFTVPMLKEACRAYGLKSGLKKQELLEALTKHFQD
T2 sequence (P13010 whole entry, chain 2 of 2): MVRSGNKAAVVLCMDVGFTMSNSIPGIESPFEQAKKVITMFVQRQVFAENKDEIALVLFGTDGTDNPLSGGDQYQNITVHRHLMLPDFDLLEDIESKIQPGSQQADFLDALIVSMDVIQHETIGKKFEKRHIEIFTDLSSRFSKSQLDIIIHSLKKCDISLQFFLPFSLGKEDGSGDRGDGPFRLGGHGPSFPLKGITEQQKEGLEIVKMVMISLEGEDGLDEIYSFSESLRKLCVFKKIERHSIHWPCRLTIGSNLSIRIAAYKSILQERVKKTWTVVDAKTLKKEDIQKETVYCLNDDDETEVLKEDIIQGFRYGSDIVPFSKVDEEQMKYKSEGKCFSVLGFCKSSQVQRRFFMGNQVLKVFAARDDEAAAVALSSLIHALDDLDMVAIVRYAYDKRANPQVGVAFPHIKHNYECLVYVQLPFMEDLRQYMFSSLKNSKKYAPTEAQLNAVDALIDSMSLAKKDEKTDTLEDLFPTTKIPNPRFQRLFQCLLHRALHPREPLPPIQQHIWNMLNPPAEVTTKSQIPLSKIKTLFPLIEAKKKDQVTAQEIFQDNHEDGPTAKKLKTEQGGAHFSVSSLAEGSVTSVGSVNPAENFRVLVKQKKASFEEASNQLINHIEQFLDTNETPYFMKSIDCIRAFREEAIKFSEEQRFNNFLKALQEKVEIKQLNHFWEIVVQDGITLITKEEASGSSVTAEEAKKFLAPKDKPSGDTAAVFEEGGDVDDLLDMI

Ku70/Ku80 wild type [3] = molecular target: T2, Ku70/Ku80 wild type; test: EMSA; 1 and 2 Ku per DNA, preference for 2; ELISA: 20 mM HEPES pH 7.5, 75 mM KCl, 10% glycerol, 0.005% Triton X-100, 2 mM DTT, room temperature, 1 h, 2 pmol DNA, 424 ng DNA-PKcs; EMSA: 20 ul, 500 fmol DNA, buffer as in earlier papers; conditions: protein: recombinant; tags: His (Ku70); copies: 1;1; blunt
[4] = molecular target: T1, Ku70/Ku80 wild type;DNA-PKcs; test: ELISA; more than double the 30bp and 400bp recruitment (Fig 4C); ELISA: 20 mM HEPES pH 7.5, 75 mM KCl, 10% glycerol, 0.005% Triton X-100, 2 mM DTT, room temperature, 1 h, 2 pmol DNA, 424 ng DNA-PKcs; EMSA: 20 ul, 500 fmol DNA, buffer as in earlier papers; conditions: protein: recombinant;native; tags: His (Ku70);; copies: 1;1;1; label: 5' biotin on one end; blunt

B1: 30bp blunt, biotinylated (dsDNA)
DNA 1: CACTTCCAACAGAGGTGACACTGCCTTCAG
DNA 2: CTGAAGGCAGTGTCACCTCTGTTGGAAGTG
- binding signal [1]: > 4 fold vs DNA-PKcs without Ku

B2: 30bp blunt (EMSA) (dsDNA)
DNA 1: CACTTCCAACAGAGGTGACACTGCCTTCAG
DNA 2: CTGAAGGCAGTGTCACCTCTGTTGGAAGTG
- binding result (Ku70/Ku80 wild type [2]): binds

B3: 60bp blunt (EMSA) (dsDNA)
DNA 1: CTTGACCAGTAGTCTAGCACGTGACGATTGCATGCGTCAAGTAAGATGCAGATACTTAAC
DNA 2: GTTAAGTATCTGCATCTTACTTGACGCATGCAATCGTCACGTGCTAGACTACTGGTCAAG
- binding result (Ku70/Ku80 wild type [3]): binds

B4: 60bp blunt, biotinylated (dsDNA)
DNA 1: CTTGACCAGTAGTCTAGCACGTGACGATTGCATGCGTCAAGTAAGATGCAGATACTTAAC
DNA 2: GTTAAGTATCTGCATCTTACTTGACGCATGCAATCGTCACGTGCTAGACTACTGGTCAAG
- binding signal [4]: > 4 fold vs DNA-PKcs without Ku

From PMC4433226
